Measurements from patent US20210147541A1 (Kyowa Kirin, published 2021).
Residue numbers refer to the chain shown, from its start. Numbers in names are those of the source. Read-outs that look alike come from different tables or passages of the source. One block for each binder: values may come before it.

What was measured:
human CADM3 [1] = biological target: T1, human CADM3 (human, UniProt Q8N126 25-398); experiment: flow cytometry, 10 ug/mL, human CADM3/Expi293F vs parent Expi293F cells
T1 construct: Full-length gene expressed transiently on Expi293F cells; also called cell adhesion molecule 3; human CADM3/Expi293F cells
T1 sequence: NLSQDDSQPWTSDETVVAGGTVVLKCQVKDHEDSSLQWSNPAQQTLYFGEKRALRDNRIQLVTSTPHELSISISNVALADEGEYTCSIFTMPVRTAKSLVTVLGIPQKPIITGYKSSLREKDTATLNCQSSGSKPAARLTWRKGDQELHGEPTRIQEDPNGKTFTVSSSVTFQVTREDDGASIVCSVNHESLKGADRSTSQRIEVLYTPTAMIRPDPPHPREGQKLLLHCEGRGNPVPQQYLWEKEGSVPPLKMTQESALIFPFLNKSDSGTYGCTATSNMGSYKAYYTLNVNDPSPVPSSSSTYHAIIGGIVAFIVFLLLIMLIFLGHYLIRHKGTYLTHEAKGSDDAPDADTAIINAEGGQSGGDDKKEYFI
Protocol: (§1) After washing with SB, the cells were suspended in SB, and the fluorescence intensity of each cell was measured using a flow cytometer FACS CANTO II (manufactured by Becton, Dickinson and Company). Note that as a negative control, 10 μg/mL of the anti-AVM antibody was used.
(§2) The detection results were analyzed, and a mean fluorescence intensity (MFI) was calculated using a geometric mean. Further, with respect to the MFI when the concentration of each antibody was 10 μg/mL, the ratio of the MFI (mean fluorescence intensity ratio) between the human CADM3/Expi293F cells and the Expi293F cells (parent cell line) was calculated.
(§3) With respect to the produced humanized anti-CADM3 VHH-Fc antibodies, reactivity with Expi293F cells, human CADM3/Expi293F cells, and mouse CADM3/Expi293F cells was analyzed by the same procedure as in Example 3.

mouse CADM3 [2] = biological target: T2, mouse CADM3 (mouse, UniProt Q99N28 23-396); experiment: flow cytometry, 10 ug/mL, mouse CADM3/Expi293F vs parent Expi293F cells
T2 construct: Full-length gene expressed transiently on Expi293F cells; also called mouse CADM3/Expi293F cells; Mouse CADM3-expressing cells
T2 sequence: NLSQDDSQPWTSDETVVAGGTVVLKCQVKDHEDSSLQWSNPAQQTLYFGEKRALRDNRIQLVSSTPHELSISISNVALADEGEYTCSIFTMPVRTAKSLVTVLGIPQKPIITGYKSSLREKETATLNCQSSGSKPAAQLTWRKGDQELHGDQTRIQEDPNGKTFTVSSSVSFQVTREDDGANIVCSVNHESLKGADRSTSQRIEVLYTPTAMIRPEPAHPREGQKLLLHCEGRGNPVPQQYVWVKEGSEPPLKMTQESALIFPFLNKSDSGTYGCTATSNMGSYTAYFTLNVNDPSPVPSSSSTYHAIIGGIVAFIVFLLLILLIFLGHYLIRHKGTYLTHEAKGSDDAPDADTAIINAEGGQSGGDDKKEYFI
Protocol: as §1, §2, §3

mouse CADM3 [3] = biological target: T2, mouse CADM3; experiment: as above; remark: listed apart in the source
hCADM3-GST = biological target: T3, hCADM3-GST (human); experiment: SPR (Biacore T-100), antibody captured, hCADM3-GST as analyte
T3 construct: also called extracellular domain of human CADM3 to which GST was added at the C-terminal side; human CADM3-GST
Protocol: (§4) The affinity of the anti-CADM3 antibodies produced in Example 2 for human CADM3 and mouse CADM3 was measured using Biacore T-100 (GE Healthcare). Each of the antibodies was immobilized on a […] sensor chip using a Human antibody Capture kit, and the binding ability was evaluated using hCADM3-GST and mCADM3-GST produced in Example 4 as analytes.
(§5) The obtained sensorgram was analyzed with BIA evaluation software, and the dissociation constant (KD value) was calculated.

mCADM3-GST = biological target: T4, mCADM3-GST (mouse); experiment: SPR (Biacore T-100), antibody captured, mCADM3-GST as analyte
T4 construct: also called extracellular domain of mouse CADM3 to which GST was added at the C-terminal side; mouse CADM3-GST
Protocol: as §4, §5

human CADM3 [4] = biological target: T1, human CADM3; experiment: flow cytometry, 10 ug/mL, human CADM3/Expi293F vs parent Expi293F cells; remark: listed apart in the source
Protocol: By using the cells, the reactivity of the antibodies produced in Example 2 with the CADM3-expressing cells was analyzed by a fluorescence activated cell sorting (FACS) method according to the following procedure.
as §1, §2

mouse CADM3 [5] = biological target: T2, mouse CADM3; experiment: flow cytometry, 10 ug/mL, mouse CADM3/Expi293F vs parent Expi293F cells; remark: listed apart in the source
Protocol: as §1, §2
Further, also with respect to AVM IgG4PE(R409K)_iCADM3_3R1-L5 dVHH, AVM IgG4PE(R409K)_iCADM3_3R1-L8 dVHH, AVM IgG4PE(R409K)_iCADM3_3R1-L10 dVHH, and AVM IgG4PE(R409K)_iCADM3_3R1-L11 dVHH, reactivity with the Expi293F cells, the human CADM3/Expi293F cells, and the mouse CADM3/Expi293F cells was analyzed by the same procedure, and the results are shown in Table 5.

- Mean fluorescence intensity ratio (human CADM3 [1]): 33
- Mean fluorescence intensity ratio (mouse CADM3 [2]): 42.2
B1: iCADM3_3R1-L11_06 VHH-hG4PE(R409K) (Fc fusion)
chain: QVQLVESGGGLVQAGGSLRLSCAASGSIFSFNAMGWYRQAPGKQRGLVAVITSGGYTNYADSVKGRFTISRDNSKNTVFLQMNSLRAEDTAVYYCNAEGVYSDYVIMNYWGQGTLVTVSS
notes: also called iCADM3-3R1-L11_06 humanized antibody; not shown: Hinge-CH2-CH3 region of the human IgG4 heavy chain constant region (IgG4 variant)

- Mean fluorescence intensity ratio (human CADM3 [1]): 22.5
- Mean fluorescence intensity ratio (mouse CADM3 [2]): 26.7
B2: iCADM3_3R1-L11_04 VHH-hG4PE(R409K) (Fc fusion)
chain: B1 chain with Q1E, V12I, F29V, V78L
notes: also called iCADM3-3R1-L11_04 humanized antibody; not shown: Hinge-CH2-CH3 region of the human IgG4 heavy chain constant region (IgG4 variant)

- Mean fluorescence intensity ratio (human CADM3 [1]): 12.2
- Mean fluorescence intensity ratio (mouse CADM3 [2]): 12.5
B3: iCADM3_3R1-L11_01 VHH-hG4PE(R409K) (Fc fusion)
chain: B1 chain with Q1E, V12I, A14P, I28T, F29V, Q44G, R45L, V78L
notes: also called iCADM3-3R1-L11_01 humanized antibody; not shown: Hinge-CH2-CH3 region of the human IgG4 heavy chain constant region (IgG4 variant)

- Mean fluorescence intensity ratio (human CADM3 [1]): 24.4
- Mean fluorescence intensity ratio (mouse CADM3 [2]): 33.8
B4: iCADM3_3R1-L11_03 VHH-hG4PE(R409K) (Fc fusion)
chain: B1 chain with Q1E, V12I, A14P, I28T, F29V, A49S, F79Y
notes: also called iCADM3-3R1-L11_03 humanized antibody; not shown: Hinge-CH2-CH3 region of the human IgG4 heavy chain constant region (IgG4 variant)

- Mean fluorescence intensity ratio (mouse CADM3 [3]): 36.1
- binding result (hCADM3-GST): binds
- binding result (mCADM3-GST): binds
- Mean fluorescence intensity ratio (human CADM3 [4]): 44.9
B5: CADM3501 hG4PE(R409K) (antibody, V domains shown)
VH: EVQLVESGGGLVQPGGALRLSCSASGFTFSGYWMHWVRQAPGKGLEWVSQISSSGTIIDSADFVKGRFAVSRDNAKDLLYLQMNSLRADDTAVYYCARGPLAKNGFDIWGQGTMVTVSS
VL: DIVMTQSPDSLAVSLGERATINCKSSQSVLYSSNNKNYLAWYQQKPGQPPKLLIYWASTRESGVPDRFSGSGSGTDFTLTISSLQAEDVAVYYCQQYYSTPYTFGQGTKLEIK
notes: Human IgG4 variant (S228P, L235E, R409K), vector pCI-hKG4PE(R409K)

- Mean fluorescence intensity ratio (mouse CADM3 [5]): 1.96
B6: AVM IgG4PE(R409K)_iCADM3_3R1-L5 dVHH (bispecific antibody)
heavy: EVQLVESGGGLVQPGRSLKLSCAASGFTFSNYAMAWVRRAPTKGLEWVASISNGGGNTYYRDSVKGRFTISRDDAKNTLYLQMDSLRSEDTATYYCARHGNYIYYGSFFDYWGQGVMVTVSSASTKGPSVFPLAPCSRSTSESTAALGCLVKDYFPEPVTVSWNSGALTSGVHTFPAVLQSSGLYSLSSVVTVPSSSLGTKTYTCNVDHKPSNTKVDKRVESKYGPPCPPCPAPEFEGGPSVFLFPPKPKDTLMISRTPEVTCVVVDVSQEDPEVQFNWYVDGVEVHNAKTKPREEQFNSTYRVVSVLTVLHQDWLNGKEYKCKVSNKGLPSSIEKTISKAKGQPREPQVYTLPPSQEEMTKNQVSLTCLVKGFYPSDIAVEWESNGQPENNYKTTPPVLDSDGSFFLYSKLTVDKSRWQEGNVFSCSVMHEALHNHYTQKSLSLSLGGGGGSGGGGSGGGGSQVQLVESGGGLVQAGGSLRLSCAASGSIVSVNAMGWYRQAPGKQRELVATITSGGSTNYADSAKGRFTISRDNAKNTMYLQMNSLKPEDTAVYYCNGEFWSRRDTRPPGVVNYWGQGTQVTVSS
light: QFVLSQPNSVSTNLGSTVKLSCKRSTGNIGSNYVSWYQQHEGRSPTTMIYRDDKRPDGVPDRFSGSIDRSSDSALLTINNVQTEDEADYFCQSYSSGINIFGGGTKLTVLGQPKAAPSVTLFPPSSEELQANKATLVCLISDFYPGAVTVAWKADSSPVKAGVETTTPSKQSNNKYAASSYLSLTPEQWKSHRSYSCQVTHEGSTVEKTVAPTECS
notes: also called anti-AVM-IgG4-CADM3 VHH bispecific antibody

- Mean fluorescence intensity ratio (mouse CADM3 [5]): 3.65
B7: AVM IgG4PE(R409K)_iCADM3_3R1-L8 dVHH (bispecific antibody)
heavy: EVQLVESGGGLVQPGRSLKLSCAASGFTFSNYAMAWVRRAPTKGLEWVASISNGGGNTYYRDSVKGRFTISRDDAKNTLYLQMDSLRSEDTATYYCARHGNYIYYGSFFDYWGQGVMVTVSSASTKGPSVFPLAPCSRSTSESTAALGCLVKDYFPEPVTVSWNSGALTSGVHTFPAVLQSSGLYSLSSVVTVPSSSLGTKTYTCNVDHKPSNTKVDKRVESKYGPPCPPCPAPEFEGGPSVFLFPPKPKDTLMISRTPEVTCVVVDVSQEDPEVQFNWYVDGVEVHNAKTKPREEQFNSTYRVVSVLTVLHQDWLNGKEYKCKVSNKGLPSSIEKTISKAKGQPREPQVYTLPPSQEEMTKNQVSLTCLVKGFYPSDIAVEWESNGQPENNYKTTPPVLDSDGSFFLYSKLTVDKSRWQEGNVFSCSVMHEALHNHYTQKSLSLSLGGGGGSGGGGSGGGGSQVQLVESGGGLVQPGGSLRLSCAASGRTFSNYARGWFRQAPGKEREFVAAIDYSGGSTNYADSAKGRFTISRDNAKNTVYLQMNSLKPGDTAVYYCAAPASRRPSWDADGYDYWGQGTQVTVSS
light: B6 light
notes: as for B6

- Mean fluorescence intensity ratio (mouse CADM3 [5]): 4.66
B8: AVM IgG4PE(R409K)_iCADM3_3R1-L11 dVHH (bispecific antibody)
heavy: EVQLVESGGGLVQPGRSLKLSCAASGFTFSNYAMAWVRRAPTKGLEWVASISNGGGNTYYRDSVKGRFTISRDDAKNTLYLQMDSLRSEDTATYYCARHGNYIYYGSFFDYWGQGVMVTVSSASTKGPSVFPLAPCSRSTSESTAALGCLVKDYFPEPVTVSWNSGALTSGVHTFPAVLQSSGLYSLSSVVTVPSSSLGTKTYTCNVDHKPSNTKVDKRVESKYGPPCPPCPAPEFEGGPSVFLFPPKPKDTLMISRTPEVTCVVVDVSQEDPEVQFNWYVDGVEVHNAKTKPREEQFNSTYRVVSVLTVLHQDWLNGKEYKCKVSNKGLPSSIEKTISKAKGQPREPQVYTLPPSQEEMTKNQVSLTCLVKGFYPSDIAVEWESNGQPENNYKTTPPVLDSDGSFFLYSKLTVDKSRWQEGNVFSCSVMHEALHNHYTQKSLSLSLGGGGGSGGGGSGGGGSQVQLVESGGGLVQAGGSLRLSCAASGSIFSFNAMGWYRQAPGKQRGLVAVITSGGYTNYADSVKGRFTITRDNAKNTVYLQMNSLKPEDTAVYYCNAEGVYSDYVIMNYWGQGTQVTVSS
light: B6 light
notes: as for B6

- Mean fluorescence intensity ratio (mouse CADM3 [5]): 1.78
B9: AVM IgG4PE(R409K)_iCADM3_3R1-L10 dVHH (bispecific antibody)
heavy: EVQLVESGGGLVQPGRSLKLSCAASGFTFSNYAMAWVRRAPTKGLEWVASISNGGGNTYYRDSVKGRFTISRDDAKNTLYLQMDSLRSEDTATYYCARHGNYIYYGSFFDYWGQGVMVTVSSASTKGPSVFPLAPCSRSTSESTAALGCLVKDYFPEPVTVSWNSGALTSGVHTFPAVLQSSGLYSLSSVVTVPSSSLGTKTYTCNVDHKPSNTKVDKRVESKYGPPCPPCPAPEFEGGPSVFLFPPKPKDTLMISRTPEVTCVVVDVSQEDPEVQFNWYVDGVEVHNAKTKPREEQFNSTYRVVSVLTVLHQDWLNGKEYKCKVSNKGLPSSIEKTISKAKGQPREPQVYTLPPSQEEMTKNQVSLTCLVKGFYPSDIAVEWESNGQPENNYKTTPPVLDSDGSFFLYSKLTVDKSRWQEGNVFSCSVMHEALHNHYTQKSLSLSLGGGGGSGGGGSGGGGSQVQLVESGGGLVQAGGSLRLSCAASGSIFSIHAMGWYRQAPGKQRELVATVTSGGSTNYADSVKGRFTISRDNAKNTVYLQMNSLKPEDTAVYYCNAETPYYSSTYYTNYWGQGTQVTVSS
light: B6 light
notes: as for B6
